Data published in publication PMC11106421, “Myosin VI in the nucleolus of neurosecretory PC12 cells: its involvement in the maintenance of nucleolar structure and ribosome organization” (Frontiers in Physiology, 2024).

What follows are binders tested against T1, myosin VI (MVI), endogenous in PC12 cells (rat (endogenous in PC12), UniProt D4A5I9 1-1285) (assay: proximity ligation; Duolink in situ PLA on fixed PC12 cells, rabbit anti-MVI with mouse monoclonal antibodies to the partner; foci counted per nucleus). Conditions: partners not purified.
T1 construct: myosin VI heavy chain, endogenous in PC12 cells; also called unconventional myosin VI; source: endogenous, PC12 cells (lysate or fixed cells)
T1 sequence (D4A5I9 entry or part of it): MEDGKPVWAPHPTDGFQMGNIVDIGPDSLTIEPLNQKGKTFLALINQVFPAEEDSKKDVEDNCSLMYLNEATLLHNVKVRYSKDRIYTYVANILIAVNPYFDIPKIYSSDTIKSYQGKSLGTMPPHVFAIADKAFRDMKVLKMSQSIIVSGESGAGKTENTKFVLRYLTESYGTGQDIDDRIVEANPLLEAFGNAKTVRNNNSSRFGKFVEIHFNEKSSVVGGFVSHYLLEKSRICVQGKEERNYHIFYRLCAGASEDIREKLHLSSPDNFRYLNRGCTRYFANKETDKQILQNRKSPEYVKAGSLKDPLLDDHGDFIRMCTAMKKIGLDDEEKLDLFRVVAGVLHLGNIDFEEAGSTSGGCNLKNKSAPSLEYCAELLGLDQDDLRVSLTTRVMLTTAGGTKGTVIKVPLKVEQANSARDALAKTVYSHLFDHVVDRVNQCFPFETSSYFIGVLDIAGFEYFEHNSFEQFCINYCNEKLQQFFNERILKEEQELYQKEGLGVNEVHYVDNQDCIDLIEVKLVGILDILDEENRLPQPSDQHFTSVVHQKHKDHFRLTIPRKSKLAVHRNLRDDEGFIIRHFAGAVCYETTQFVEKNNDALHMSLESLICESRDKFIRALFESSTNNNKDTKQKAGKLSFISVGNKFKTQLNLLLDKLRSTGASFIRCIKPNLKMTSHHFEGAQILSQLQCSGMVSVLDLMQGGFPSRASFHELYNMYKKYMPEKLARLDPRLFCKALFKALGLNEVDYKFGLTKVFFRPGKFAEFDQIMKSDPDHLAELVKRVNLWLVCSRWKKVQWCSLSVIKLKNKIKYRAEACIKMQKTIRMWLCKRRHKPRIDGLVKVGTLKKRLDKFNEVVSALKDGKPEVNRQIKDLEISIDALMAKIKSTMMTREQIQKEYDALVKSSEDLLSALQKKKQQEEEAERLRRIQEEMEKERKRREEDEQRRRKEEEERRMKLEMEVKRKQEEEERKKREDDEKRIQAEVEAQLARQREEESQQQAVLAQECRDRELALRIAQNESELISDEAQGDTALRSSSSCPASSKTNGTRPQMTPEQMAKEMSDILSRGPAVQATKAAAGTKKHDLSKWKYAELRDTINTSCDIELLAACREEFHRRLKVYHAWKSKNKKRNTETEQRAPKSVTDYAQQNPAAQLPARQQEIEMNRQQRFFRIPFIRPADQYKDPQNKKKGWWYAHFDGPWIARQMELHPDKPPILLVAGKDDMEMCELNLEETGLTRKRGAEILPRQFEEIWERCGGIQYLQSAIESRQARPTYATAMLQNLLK

Binder	fraction of PLA foci-positive nuclei [%]
B23 (also termed nucleophosmin, NPM1) (natural protein, rat (endogenous in PC12), UniProt P13084 1-292, looked up, B23 / nucleophosmin, endogenous in PC12 cells, detected with a mouse monoclonal anti-B23 antibody; source: endogenous, PC12 cells (lysate or fixed cells)) MEDSMDMDMSPLRPQNYLFGCELKADKDYHFKVDNDENEHQLSLRTVSLGAGAKDELHIVEAEAMNYEGSPIKVTLATLKMSVQPTVSLGGFEITPPVVLRLKCGSGPVHISGQHLVAVEEDAESEDEDEEDVKLLGMSGKRSAPGGGNKVPQKKVKLDEDDDEDDEDDEDDEDDDDDDFDEEETEEKVPVKKSVRDTPAKNAQKSNQNGKDLKPSTPRSKGQESFKKQEKTPKTPKGPSSVEDIKAKMQASIEKGGSLPKVEAKFINYVKNCFRMTDQEAIQDLWQWRKSL	~57
fibrillarin (natural protein, rat (endogenous in PC12), UniProt P22509 1-327, looked up, fibrillarin, endogenous in PC12 cells, detected with a mouse monoclonal anti-fibrillarin antibody; source: endogenous, PC12 cells (lysate or fixed cells)) MKPGFSPRGGGFGGRGGFGDRGGRGGGRGGRGGFGGGRGGFGGGGRGRGGGGGGFRGRGGGGGRGGGFQSGGGRGRGGGRGGKRGNQSGKNVMVEPHRHEGVFICRGKEDALVTKNLVPGESVYGEKRVSISEGDDKIEYRAWNPFRSKLAAAILGGVDQIHIKPGAKVLYLGAASGTTVSHVSDIVGPDGLVYAVEFSHRSGRDLINLAKKRTNIIPVIEDARHPHKYRMLIAMVDVIFADVAQPDQTRIVALNAHTFLRNGGHFVISIKANCIDSTASAEAVFASEVKKMQQENMKPQEQLTLEPYERDHAVVVGVYRPPPKAKN	~65
UBF (upstream binding factor) (natural protein, rat (endogenous in PC12), UniProt P25977 1-764, looked up, source: endogenous, PC12 cells (lysate or fixed cells)) MNGEADCPTDLEMAAPKGQDRWSQEDMLTLLECMKNNLPSNDSSKFKTTESHMDWEKVAFKDFSGDMCKLKWVEISNEVRKFRTLTELILDAQEHVKNPYKGKKLKKHPDFPKKPLTPYFRFFMEKRAKYAKLHPEMSNLDLTKILSKKYKELPEKKKMKYIQDFQREKQEFERNLARFREDHPDLIQNAKKSDIPEKPKTPQQLWYTHEKKVYLKVRPDATTKEVKDSLGKQWSQLSDKKRLKWIHKALEQRKEYEEIMRDYIQKHPELNISEEGITKSTLTKAERQLKDKFDGRPTKPPPNSYSLYCAELMANMKDVPSTERMVLCSQQWKLLSQKEKDAYHKKCDQKKKDYEVELLRFLESLPEEEQQRVLGEEKMLNINKKQTTSPASKKPSQEGGKGGSEKPKRPVSAMFIFSEEKRRQLQEERPELSESELTRLLARMWNDLSEKKKAKYKAREAALKAQSERKPGGEREDRGKLPESPKRAEEIWQQSVIGDYLARFKNDRVKALKAMEMTWNNMEKKEKLMWIKKAAEDQKRYERELSEMRAPPAATNSSKKMKFQGEPKKPPMNGYQKFSQELLSNGELNHLPLKERMVEIGSRWQRISQSQKEHYKKLAEEQQRQYKVHLDLWVKSLSPQDRAAYKEYISNKRKNMTKLRGPNPKSSRTTLQSKSESEEDDDEEDDDDDDEEEEEDDENGDSSEDGGDSSESSSEDESEDGDENEDDDDDEDDDEDDDEDEDNESEGSSSSSSSSGDSSDSDSN	~36
